Assay [1] concerns the target T1, CDK2/Cyclin A2, full-length recombinant, N-terminal GST tag on both proteins (UniProt P24941 1-298; P20248 1-432). Briefly: cell-based or functional assay.
The target of assay [2] is CDK4/Cyclin D1, full-length recombinant, N-terminal GST tag on both proteins (UniProt P11802 2-303; P24385 1-295). As to the kind of experiment: cell-based or functional assay.
Assay [3] addresses T2, CDK4/cyclin D1 (as used in the binding assay) (UniProt P11802 1-303; P24385 1-295).
T2 construct: kept apart from the GST-tagged kinase-assay complex m2; also called CDK4/D1

Assay [4] has as its target T3, CDK2/cyclin A (as used in the binding assay) (UniProt P24941 1-298; P20248 1-432). Briefly: FP binding assay.
Assay [5] has as its target T2, CDK4/cyclin D1 (as used in the binding …). As to the kind of experiment: FP binding assay.
For assay [6], the target named is T1, CDK2/Cyclin A2, full-length …. Briefly: cell-based or functional assay. The source holds these as a separate data set.
Assay [7] addresses T3, CDK2/cyclin A (as used in the binding …).

As usually defined, the IC50 is the concentration that gives 50% inhibition. Low readings indicate greater potency in that assay, high ones weaker potency in that assay.

Where two headings read alike, the source gives them in different places. Non-standard residues stand in square brackets, D forms with d. No end group written: not given here. *: point of attachment. Pyrazole N‑cap (R1 OCH3, R2 H, R3 H, R4 CH3, W N, X N, Y C, Z C) = not defined here; Pyrazole N‑cap (R1 Cl, R2 H, R3 Cl, R4 CH3, W N, X N, Y C, Z C) = not defined here; Pyrazole N‑cap (R1 Cl, R2 H, R3 H, R4 CH3, W N, X N, Y C, Z C) = not defined here; Pyrazole N‑cap (R1 F, R2 H, R3 H, R4 CH3, W N, X N, Y C, Z C) = not defined here; Pyrazole N‑cap (R1 H, R2 H, R3 H, R4 CH3, W N, X N, Y C, Z C) = not defined here; 3‑phenoxybenzylamide = c1ccc(Oc2cccc(CN*)c2)cc1; Cha = N[C@@H](CC1CCCCC1)C(=O)O; β3hL = CC(C)C[C@H](N)CC(=O)O

T2 sequence (P11802 whole entry, chain 1 of 2): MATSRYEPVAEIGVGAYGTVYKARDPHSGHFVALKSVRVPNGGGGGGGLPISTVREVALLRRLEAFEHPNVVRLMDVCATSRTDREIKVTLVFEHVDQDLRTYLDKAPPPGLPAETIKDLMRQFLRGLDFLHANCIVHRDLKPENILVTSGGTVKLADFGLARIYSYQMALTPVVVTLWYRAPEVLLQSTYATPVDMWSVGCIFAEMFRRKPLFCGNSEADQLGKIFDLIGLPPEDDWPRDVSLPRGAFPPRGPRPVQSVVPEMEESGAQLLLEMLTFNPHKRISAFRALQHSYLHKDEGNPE
T2 sequence (P24385 whole entry, chain 2 of 2): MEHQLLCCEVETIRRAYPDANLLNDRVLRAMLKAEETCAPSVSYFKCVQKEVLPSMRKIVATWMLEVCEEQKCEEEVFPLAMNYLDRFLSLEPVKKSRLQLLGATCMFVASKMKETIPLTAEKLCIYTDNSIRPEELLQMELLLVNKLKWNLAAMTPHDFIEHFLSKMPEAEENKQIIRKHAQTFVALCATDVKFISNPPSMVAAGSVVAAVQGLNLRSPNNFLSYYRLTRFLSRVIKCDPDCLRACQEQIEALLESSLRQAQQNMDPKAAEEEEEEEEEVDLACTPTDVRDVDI
Chain of CDK4/Cyclin D1, full-length recombinant, N-terminal GST tag on both proteins (P11802 2-303, chain 1 of 2): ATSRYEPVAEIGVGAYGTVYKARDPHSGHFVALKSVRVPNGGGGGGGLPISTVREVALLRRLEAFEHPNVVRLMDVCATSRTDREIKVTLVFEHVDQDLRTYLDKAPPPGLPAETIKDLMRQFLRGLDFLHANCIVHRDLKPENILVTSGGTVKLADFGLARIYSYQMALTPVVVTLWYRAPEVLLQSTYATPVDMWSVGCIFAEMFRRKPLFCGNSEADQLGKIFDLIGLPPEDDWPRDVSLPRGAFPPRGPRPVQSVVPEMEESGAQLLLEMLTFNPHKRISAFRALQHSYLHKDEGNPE
Chain of CDK4/Cyclin D1, full-length recombinant, N-terminal GST tag on both proteins (P24385 whole entry, chain 2 of 2): as the sequence (P24385 whole entry, chain 2 of 2) above

For HAKTRLIF-NH2, in assay [1], the “IC50, kinase assay” value was 50 µM and the “Potency ratio vs native HAKRRLIF” value amounted to 38.5 ratio. Besides, in assay [2], the “IC50, kinase assay” value amounted to 25 µM and the “Potency ratio vs native HAKRRLIF” value stood at 16.7 ratio.

On to RXLIF (Cit at position 2 = citrulline; C-terminal amide, also called SCCP 5831) [RCitLIF], for which the IC50 in assay [3] came to 46.5 µM.

Turning to {Pyrazole N‑cap (R1 Cl, R2 H, R3 H, R4 CH3, W N, X N, Y C, Z C)}-RLIF (reading uncertain; also: cap structure given only by scaffold parameters) [SCCP 5764 (Pyrazole N-cap ligated to RLIF)], the values for the IC50 in assay [4] and in assay [5] were 11.9 µM and 45 µM, respectively.

As for Arg-Arg-[β3hL]-{3‑phenoxybenzylamide} [Arg-Arg-β-homoleucyl-3-phenoxybenzylamid], in assay [1], the “IC50, kinase assay” value is greater than 100 µM. Moreover, in assay [2], the “IC50, kinase assay” value is 60 µM and the Potency ratio amounted to 20.7 ratio.

For {Pyrazole N‑cap (R1 OCH3, R2 H, R3 H, R4 CH3, W N, X N, Y C, Z C)}-RLIF (reading uncertain; also: cap structure given only by scaffold parameters) [SCCP 5766 (Pyrazole N-cap ligated to RLIF)], the IC50 in assay [4] was determined as 64.1 µM.

B1: SCCP 5852 (Imidazole N-cap ligated to RLIF) (peptide)
peptide: {2‑(3-fluorophenyl)‑1H‑imidazole‑4‑carbonyl}-RLIF
notes: also called 2-(3-fluorophenyl)-1H-imidazole-4-carboxamide
Consider B1, for which the IC50 in assay [4] came out at 34.3 µM; in assay [5], 67 µM.

Turning to {Pyrazole N‑cap (R1 F, R2 H, R3 H, R4 CH3, W N, X N, Y C, Z C)}-RLIF (reading uncertain; also: cap structure given only by scaffold parameters) [SCCP 5771 (Pyrazole N-cap ligated to RLIF)], the results for the IC50 in assay [4] and in assay [5] were 29.6 µM and 69.6 µM, respectively.

Take HAKRRLI[2‑thienylalanine]-NH2 [HAKRRLIX2]: the “IC50, kinase assay” value in assay [6] is 3.6 µM.

B2: HAKRRLIX4 (peptide)
peptide: HAKRRLIA
HELM: PEPTIDE1{H.A.K.R.R.L.I.[O=C([C@H](CC1CCC1)N[*:1])[*:2]].[am]}$$$$V2.0; N-terminus assumed
SMILES: CC[C@H](C)[C@H](NC(=O)[C@H](CC(C)C)NC(=O)[C@H](CCCNC(=N)N)NC(=O)[C@H](CCCNC(=N)N)NC(=O)[C@H](CCCCN)NC(=O)[C@H](C)NC(=O)[C@@H](N)Cc1c[nH]cn1)C(=O)N[C@@H](CC1CCC1)C(N)=O
B2: the “IC50, kinase assay” value in assay [6] is 25 µM.

B3: HAKRRLIX3 (peptide)
peptide: HAKRRLIA
HELM: PEPTIDE1{H.A.K.R.R.L.I.[O=C([C@H](Cc1ccsc1)N[*:1])[*:2]].[am]}$$$$V2.0; N-terminus assumed
SMILES: CC[C@H](C)[C@H](NC(=O)[C@H](CC(C)C)NC(=O)[C@H](CCCNC(=N)N)NC(=O)[C@H](CCCNC(=N)N)NC(=O)[C@H](CCCCN)NC(=O)[C@H](C)NC(=O)[C@@H](N)Cc1c[nH]cn1)C(=O)N[C@@H](Cc1ccsc1)C(N)=O
With B3, in assay [6], the “IC50, kinase assay” value came out at 25 µM.

B4: HAKRRLIX7 (peptide)
peptide: HAKRRLIA
HELM: PEPTIDE1{H.A.K.R.R.L.I.[O=C([C@H](Cc1cccnc1)N[*:1])[*:2]].[am]}$$$$V2.0; N-terminus assumed
SMILES: CC[C@H](C)[C@H](NC(=O)[C@H](CC(C)C)NC(=O)[C@H](CCCNC(=N)N)NC(=O)[C@H](CCCNC(=N)N)NC(=O)[C@H](CCCCN)NC(=O)[C@H](C)NC(=O)[C@@H](N)Cc1c[nH]cn1)C(=O)N[C@@H](Cc1cccnc1)C(N)=O
For the molecule B4, the “IC50, kinase assay” value in assay [6] was 29 µM.

On to SAKRNLFGM-NH2, for which, in assay [2], the “IC50, kinase assay” value was determined as 146 µM.

As for SAKRALFGM-NH2, the “IC50, kinase assay” value in assay [2] came out at 68 µM.

In the case of XRLIF (Cit at position 1 = citrulline; C-terminal amide, also called SCCP 5812) [CitRLIF], the IC50 in assay [3] is 72.3 µM. Moreover, in assay [2], the “IC50, kinase assay” value was found to be 179 µM.

On to PAKRRLFG-NH2, for which the “IC50, kinase assay” value in assay [2] worked out at 6.7 µM.

RRLNF (pfF at position 5 = p-fluorophenylalanine; C-terminal amide, also called SCCP 540) [RRLNpfF]: the 50% inhibitory concentration (IC50) in assay [3] is 8 µM.

{Pyrazole N‑cap (R1 H, R2 H, R3 H, R4 CH3, W N, X N, Y C, Z C)}-RLIF (reading uncertain; also: cap structure given only by scaffold parameters) [SCCP 5762 (Pyrazole N-cap ligated to RLIF)] had a half-maximal inhibitory concentration (IC50) in assay [5] of 53.8 µM.

HAKRRLI[Cha]-NH2 (not fully specified, also called HAKRRLIX6; HAKRRLI{CHA}) [HAKRRLIR6]: the IC50 was 0.25 µM in assay [7] and 0.26 µM in assay [3]. In addition, the “IC50, kinase assay” value in assay [6] is 58 µM.

As to RKLIF (dimethyllysine at position 2 (lysine with the epsilon amino group methylated), also called SCCP 5918) [R(dimethyllys)LIF], the half-maximal inhibitory concentration (IC50) is 5.4 µM in assay [7] and 72.2 µM in assay [3].

Regarding {Pyrazole N‑cap (R1 Cl, R2 H, R3 Cl, R4 CH3, W N, X N, Y C, Z C)}-RLIF (reading uncertain; also: cap structure given only by scaffold parameters) [SCCP 5763 (Pyrazole N-cap ligated to RLIF)], the IC50 in assay [4] stood at 21.8 µM.

Regarding {Triazole N‑cap (R1 H, R2 H, R3 H, R4 H, W N, X N, Y N, Z C)}-RLIF (also: cap structure given only by scaffold parameters) [SCCP 5843 (Triazole N-cap ligated to RLIF)], the figures for the IC50 in assay [4] and in assay [5] were 16.2 µM and 48.7 µM, respectively.

B5: SAKRR{bLeu}3TAG-OH (peptide)
peptide: SAKRRLAG
HELM: PEPTIDE1{S.A.K.R.R.[CC(C)C[C@@H](CC(=O)[*:2])N[*:1]].[O=C([C@H](Cc1ccsc1)N[*:1])[*:2]].G}$$$$V2.0; N-terminus assumed
SMILES: CC(C)C[C@@H](CC(=O)N[C@@H](Cc1ccsc1)C(=O)NCC(=O)O)NC(=O)[C@H](CCCNC(=N)N)NC(=O)[C@H](CCCNC(=N)N)NC(=O)[C@H](CCCCN)NC(=O)[C@H](C)NC(=O)[C@@H](N)CO
notes: C-terminal free acid (-OH); also called SCCP 5813
In turn, B5 gave an IC50 in assay [7] of 0.31 µM.

B6: SAKRRL3TA G-OH (peptide)
peptide: SAKRRLXG
HELM: PEPTIDE1{S.A.K.R.R.L.[O=C([C@H](Cc1ccsc1)N[*:1])[*:2]].G}$$$$V2.0; N-terminus assumed
SMILES: CC(C)C[C@H](NC(=O)[C@H](CCCNC(=N)N)NC(=O)[C@H](CCCNC(=N)N)NC(=O)[C@H](CCCCN)NC(=O)[C@H](C)NC(=O)[C@@H](N)CO)C(=O)N[C@@H](Cc1ccsc1)C(=O)NCC(=O)O
notes: C-terminal free acid (-OH); also called SCCP 5814
On to B6, for which the half-maximal inhibitory concentration (IC50) in assay [7] was determined as 0.43 µM.

The values are drawn from patent US20150011730A1 (UNIVERSITY OF SOUTH CAROLINA, published 2015).
